Patent publication US20260242478A1 (published 2026)
Where no end group is shown, it is not given here.

Experiments:
[1] = biological target: T1, Anti-CD28 Fab (SEQ ID NOs: 696, 697); experiment: phage binding ELISA; biotinylated Fab on neutravidin plate, clonal phage supernatant, anti-M13 HRP detection
T1 construct: In the phage ELISA the Fab was biotinylated and captured on neutravidin coated plates
T1 sequence (VH, as listed by the source, chain 1 of 2): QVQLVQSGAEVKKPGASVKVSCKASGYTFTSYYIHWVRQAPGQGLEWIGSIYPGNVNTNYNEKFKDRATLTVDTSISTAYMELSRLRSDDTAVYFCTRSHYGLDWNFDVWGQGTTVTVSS
T1 sequence (VL, as listed by the source, chain 2 of 2): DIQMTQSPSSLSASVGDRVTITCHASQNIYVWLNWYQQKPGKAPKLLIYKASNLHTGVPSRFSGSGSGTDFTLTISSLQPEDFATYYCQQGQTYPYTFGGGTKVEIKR
Method: Clonal phage were harvested as crude supematants and screened via standard ELISAs. […] Prior to the addition of clonal phage, wells were incubated with blocking buffer and CD28 antigen or blocking buffer alone. Without washing or aspirating, clonal phage supematants were then added to the wells and incubated for a short time. Wells were then washed followed by detection of bound phage using a horse radish conjugated anti-M13 antibody. Clonal phage of interest were then sent for sequence analysis.

[2] = biological target: T1, Anti-CD28 Fab (SEQ ID NOs: 696, 697); experiment: phage binding ELISA on captured Fab; wells pre-incubated with CD28 antigen as competitor
Method: (§1) Clonal phage were harvested as crude supematants and screened via standard ELISAs. […] Prior to the addition of clonal phage, wells were incubated with blocking buffer and CD28 antigen or blocking buffer alone. Without washing or aspirating, clonal phage supematants were then added to the wells and incubated for a short time. Wells were then washed followed by detection of bound phage using a horse radish conjugated anti-M13 antibody.

[3] = biological target: T2, Anti-CD28 Fab (SEQ ID NOs: 696, 697); experiment: phage binding ELISA; biotinylated Fab on neutravidin plate, anti-M13 HRP detection
T2 construct: In the phage ELISA the Fab was biotinylated and captured on neutravidin coated plates
T2 sequence (VH, as listed by the source, chain 1 of 2): as the sequence (VH, as listed by the source, chain 1 of 2) above
T2 sequence (VL, as listed by the source, chain 2 of 2): as the sequence (VL, as listed by the source, chain 2 of 2) above
Method: as §1

[4] = biological target: T2, Anti-CD28 Fab (SEQ ID NOs: 696, 697); experiment: phage binding ELISA on captured Fab; CD28 antigen as competitor
Method: as §1

[5] = biological target: T3, Anti-CD28 Fab (SEQ ID NOs: 696, 697); experiment: phage binding ELISA; biotinylated anti-CD28 Fab on neutravidin plate, clonal phage supernatant, anti-M13 HRP detection;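 further: wells pretreated with blocking buffer, either plus or minus CD28 antigen, then given crude phage supernatant briefly without washing in between, then washed before anti-M13 HRP readout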
T3 construct: In the phage ELISA the Fab was biotinylated and captured on neutravidin coated plates
T3 sequence (VH, as listed by the source, chain 1 of 2): as the sequence (VH, as listed by the source, chain 1 of 2) above
T3 sequence (VL, as listed by the source, chain 2 of 2): as the sequence (VL, as listed by the source, chain 2 of 2) above
Method: as §1

[6] = biological target: T3, Anti-CD28 Fab (SEQ ID NOs: 696, 697); experiment: phage binding ELISA on plate-captured anti-CD28 Fab pre-incubated with CD28 antigen (competitor: CD28), anti-M13 HRP detection
Method: as §1

[7] = biological target: T4, Anti-PSMA Fab (SEQ ID NOs: 19, 20); experiment: phage binding ELISA; biotinylated anti-PSMA Fab on neutravidin plate, wells pre-incubated with PSMA antigen as competitor, anti-M13-HRP detection
T4 construct: Used biotinylated and captured on neutravidin coated plates; also called 006 PSMA Fab
Method: (§2) Clonal phage were harvested as crude supernatants and screened via standard ELISAs. […] Prior to the addition of clonal phage. wells were incubated with blocking buffer and PSMA antigen or blocking buffer alone. Without washing or aspirating, clonal phage supernatants were then added to the wells and incubated for a short time. Wells were then washed followed by detection of bound phage using a horse radish conjugated anti-M13 antibody.

[8] = biological target: T4, Anti-PSMA Fab (SEQ ID NOs: 19, 20); experiment: phage binding ELISA; biotinylated anti-PSMA Fab on neutravidin plate, clonal phage supernatant, anti-M13-HRP detection
Method: as §2

Binder	Anti-CD28 Fab (SEQ ID NOs: 696, 697) signal [3]	Anti-CD28 Fab signal in the presence of CD28 [4]	Phage binding ELISA, Anti-CD28 Fab signal [5]	Phage binding ELISA, Anti-CD28 Fab signal in the presence of CD28 [6]	further results
SCTAGFRIHWPMCF [Phage-1659]	–	–	–	–	Anti-CD28 Fab (SEQ ID NOs: 696, 697) signal [1]: 1.06; Anti-CD28 Fab signal in the presence of CD28 [2]: 0.12
SCAAGAAYAWPWCL [Phage-1660]	–	–	–	–	Anti-CD28 Fab (SEQ ID NOs: 696, 697) signal [1]: 1.05; Anti-CD28 Fab signal in the presence of CD28 [2]: 0.07
MCTAGFSFNWPECL (tested as crude phage supernatant) [Phage-1661]	1.05	0.07	–	–	–
LCDQFFHYNWPACL (tested as crude phage supernatant) [Phage-1662]	1.04	0.05	–	–	–
SCAAVFSFNWPECF (tested as crude phage supernatant) [Phage-1663]	1.01	0.07	–	–	–
TCSAGASYSWPYCM (tested as crude phage supernatant) [Phage-1664]	1	0.07	–	–	–
WCSEVFSYPWPACL (tested as crude phage supernatant) [Phage-1665]	0.99	0.06	–	–	–
SCTAVFSYALSPCF (tested as crude phage supernatant) [Phage-1666]	0.99	0.05	–	–	–
LCAAVFAYTWPMCF (tested as crude phage supernatant) [Phage-1667]	0.98	0.07	–	–	–
PCAAGAHYVWPVCF (tested as crude phage supernatant) [Phage-1668]	0.97	0.06	–	–	–
TCSAGATYKWPTCL (tested as crude phage supernatant) [Phage-1669]	0.97	0.07	–	–	–
SCAAGAHWSWPACL (tested as crude phage supernatant) [Phage-1670]	0.97	0.06	–	–	–
MCAAGAMYNWPLCL (tested as crude phage supernatant) [Phage-1671]	0.95	0.09	–	–	–
SCAAGASYSWPLCF (tested as crude phage supernatant) [Phage-1672]	0.95	0.08	–	–	–
VCAAGAAYPWPACL (tested as crude phage supernatant) [Phage-1673]	0.93	0.07	–	–	–
TCSAGAHYPWPMCL (tested as crude phage supernatant) [Phage-1674]	0.93	0.06	–	–	–
TCSAGATYKWPMCF [Phage-1690]	–	–	0.77	0.07	–
TCSAGATYGWPACF [Phage-1691]	–	–	0.76	0.07	–
ICAAGAGWPWPWCL [Phage-1692]	–	–	0.75	0.1	–
ECSAGAMWGWPACF [Phage-1693]	–	–	0.73	0.09	–

Binder	Anti-CD28 Fab (SEQ ID NOs: 696, 697) signal [3]	Anti-CD28 Fab signal in the presence of CD28 [4]	Phage binding ELISA, Anti-CD28 Fab signal [5]	Phage binding ELISA, Anti-CD28 Fab signal in the presence of CD28 [6]	further results
TCAAGATYDWPSCL [Phage-1694]	–	–	0.71	0.08	–
TCAAGAVWQWPTCF [Phage-1695]	–	–	0.71	0.06	–
PCSAGATYAWPYCL [Phage-1696]	–	–	0.71	0.09	–
TCAAGAQLEWPWCF [Phage-1697]	–	–	0.7	0.07	–
GCAAGAEYNWPTCL [Phage-1698]	–	–	0.69	0.64	–
TCAAGAAYTWPHCF [Phage-1699]	–	–	0.69	0.11	–
TCSAGAQWEWPACL [Phage-1700]	–	–	0.67	0.08	–
WCSAVFSYQWPVCL [Phage-1701]	–	–	0.61	0.06	–
SCSAGASYAWPMCI [Phage-1702]	–	–	0.59	0.06	–
DCWWDSPYHWRVCL [Phage-1703]	–	–	0.57	0.07	–
IAVLCQPNWMCAGF (cysteine pairing not given here; also: fused to phage pIII (clonal phage display), also called Peptide-180; not shown: pIII coat protein of the bacteriophage to which the peptide is fused) [Phage-1708]	–	–	–	–	Anti-PSMA Fab signal in the presence of PSMA [7]: 0.077; Anti-PSMA Fab (SEQ ID NOs: 19, 20) signal [8]: 0.997
LMKWCTPRWMCAAE (cysteine pairing not given here; also: fused to phage pIII (clonal phage display), not shown: pIII coat protein of the bacteriophage to which the peptide is fused) [Phage-1707]	–	–	–	–	Anti-PSMA Fab signal in the presence of PSMA [7]: 0.232; Anti-PSMA Fab (SEQ ID NOs: 19, 20) signal [8]: 1.04
PELRCVPFWMCSFN (cysteine pairing not given here; also: fused to phage pIII (clonal phage display), not shown: pIII coat protein of the bacteriophage to which the peptide is fused) [Phage-1709]	–	–	–	–	Anti-PSMA Fab signal in the presence of PSMA [7]: 0.064; Anti-PSMA Fab (SEQ ID NOs: 19, 20) signal [8]: 0.622
SIPCIPRDWLCPIK (cysteine pairing not given here; also: displayed as fusion to phage pIII, linker and order of fusion not given here, not shown: pIII coat protein of the bacteriophage to which the peptide is fused) [Phage-1710]	–	–	–	–	Anti-PSMA Fab signal in the presence of PSMA [7]: 0.096; Anti-PSMA Fab (SEQ ID NOs: 19, 20) signal [8]: 1.89
MEYCSFHRFTCVLW (cysteine pairing not given here; also: displayed on phage as pIII fusion, pIII sequence, linker and fusion order not given here, not shown: pIII coat protein of the bacteriophage to which the peptide is fused) [Phage-1711]	–	–	–	–	Anti-PSMA Fab signal in the presence of PSMA [7]: 0.117; Anti-PSMA Fab (SEQ ID NOs: 19, 20) signal [8]: 1.88
IRCVGEGHDLVCIF (cysteine pairing not given here; also: displayed on phage as pIII fusion, pIII sequence, linker and fusion order not given here, not shown: pIII coat protein of the bacteriophage to which the peptide is fused) [Phage-1712]	–	–	–	–	Anti-PSMA Fab signal in the presence of PSMA [7]: 0.072; Anti-PSMA Fab (SEQ ID NOs: 19, 20) signal [8]: 2.36
FVCWTFGEHIKVCR (cysteine pairing not given here; also: displayed on phage as pIII fusion, pIII sequence, linker and fusion order not given here, not shown: pIII coat protein of the bacteriophage to which the peptide is fused) [Phage-1714]	–	–	–	–	Anti-PSMA Fab signal in the presence of PSMA [7]: 0.205; Anti-PSMA Fab (SEQ ID NOs: 19, 20) signal [8]: 2.51
ILCGLYEALVSECG (cysteine pairing not given here; also: displayed on phage as pIII fusion, pIII sequence, linker and fusion order not given here, not shown: pIII coat protein of the bacteriophage to which the peptide is fused) [Phage-1715]	–	–	–	–	Anti-PSMA Fab signal in the presence of PSMA [7]: 0.063; Anti-PSMA Fab (SEQ ID NOs: 19, 20) signal [8]: 2.49
IECAYMTDQRFWCW (cysteine pairing not given here; also: fused to phage pIII (clonal phage display), not shown: pIII coat protein of the bacteriophage to which the peptide is fused) [Phage-1716]	–	–	–	–	Anti-PSMA Fab signal in the presence of PSMA [7]: 0.066; Anti-PSMA Fab (SEQ ID NOs: 19, 20) signal [8]: 1.93
